Measurements reported in the nanobody polyreactivity screen of Harvey et al. (2022).

experiment: yeast display, Sf9 membrane polyspecificity reagent, FACS + sequencing; frameworks hold sequencing errors
Method in brief: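 Nanobodies came from a synthetic yeast display library in Saccharomyces cerevisiae BJ5465, induced with galactose for 36–48 hours and stained for 1 hour at 4 °C with 10% biotinylated, detergent-solubilized Sf9 membrane reagent. Cells were enriched on streptavidin microbeads and then FACS-sorted, with low and high (top ~1%) gates set on anti-HA fluorescence for expression and streptavidin fluorescence for reagent binding. Each polyreactivity label reflects the gate a clone came from. Genes were amplified by colony PCR, sequenced by MiSeq 2 × 250 and filtered by CDR length.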

Row | Sequence | polyreactivity (PSR sort gate)
1 | QFQLVESRGGLVQAGGSLRLNCASSGSIFYSYAIGWYRQAPGKERELVAAITRGGSTYYADSVKGRFTISRDNAKNTVYLQMNSLKREDTAVYYCAAEFYSYKYPDYDYWGQGTQVTVSS | low polyreactivity
2 | QVQLVESGGGLVQAGGSLRLSCAASGFTFYHNTMGWYRQAPGKEREFVATINFIGGSTYYADSVKGRFTISRDNAKNTVYLQMNSLKPEDTAVYYCNARSRYLYFLRFDYWGQGTQVTVSS | high polyreactivity
3 | QVQLEESGGGLVQAGGSLRLSCAPSGSIFFYYAMGWYRQAPGKERELVAAITFTGGSTYYADSVKGRFTISRDNANNTVYLQMNSLNPEDTAVSYCAADWYYGDEYEYWGQGTQVTVSS | high polyreactivity
4 | QVQLVESGGGLVQAGGSLRLSCAASGSIFHGYAMGWYRTAPGKERELVAAISYTGGRTYYADSVKGRFTISRDNAMNTVYLQMNSLKPEDTAVYYCAAHDYWGQGTQVTVSS | high polyreactivity
5 | QVQLVESGGGLVQAGGSLRLSCAASGFTFVPYARGWYRQAPGKDREWVAAISRRGGSTYYADSVKGRFTISRDYAKNTVYLQMNSLKPEDTAVYYCAKDGPGGGTRIYDYWGQGTQVTVSS | high polyreactivity
6 | QVQLVESGGGLVQAGGSLRLSCAASGFTFRYYTMVWYRQAPGKERELVAAITSSGGNTYYADSVKGRFTISRDNAKNTVYLQMNSLKPEDTAVYYCAADAYPQYNGWSWMDYWGQGTQVTVSS | low polyreactivity
7 | QVQLVESGGGLVQAGGSLRLSCAASGNTFYGYAMGWYRQAPGKERELVASITLSGDSTYYADSVKGRFTISRDNAMNTVYLQMNSLKPEYTAVYYCAGVYTYPLGYYHYTYDYWGQGTQVTVSS | low polyreactivity
8 | QVQLVESGGGLVQAGGSLRLSCASSGSTFEANAMGWSRQAPGKDRELVAAISSRGGSTYYADSVKGRFTISRDNGKNTVYFQRNSLKPEDTAVYYCAALLRSGGEYDYWGQGTQVTVSS | high polyreactivity
9 | QVQLVESGGGLVQAGGSLRLSCAASGMIFPGNTMGWYRQAPGKERELVAAITNGVSTNYADSVKGRFTISRDNAKNTVYLQMNSLKPEDTAVYYCNGPFNYVGGYSNYSGFVYWGQGTQVTVSS | high polyreactivity
10 | QVQLVESGGAIVQAGGSLRLSCAASGRIYYPYAMGWYRQAPGKERELVAAISSGVSTNYADSVKGRFTITRDNAKNTVYLQMNSLNPEDTAVYYCARTYFRFSSSYYKAVSHGFWGQGTQVTVSS | high polyreactivity
11 | QVQLVESGGGLVQAGCSLRLSCAASGFIFWLYAMGWYRQAPGKERELVASINWSGGDTYYADSVKGRFTISRDNAKNTVYLQMNSLKPEDTAVYYCNAIVLDSKSSFDYWGQGTQVTVSS | low polyreactivity
12 | QVQLVESGAGLVKAGGILRLSCAASGFTFYGYAMGWYRQAPGKERELVAAITFRGDRTYYADSVKGRFTISRDNAKNTVYLQMNSLIPEDTAVYYCAAERPSGWYSYLSLYIVRRGYWGQGTQVSVSS | low polyreactivity
13 | QVQLVESGGGLVQAGGSLRLSCAASGLSSLRMLWDGLDRRLGKKGSWLPLITSGGDSTNYADSVKGRFTISRDNAKNTVYLQMNSLKPEDTAVYYCAADLDYPYGYWGQGTQVTVSS | low polyreactivity
14 | QVQLVESGGGLVQAGGSLRLSCAASGSTLRWYTMGWYRQAPGKESELVATNSRGGTTNYADSVKGRFTISRDNAKNTVYLQMNSLKPEDTAVYYCASRDFWWSRRIFGYWGQGTHVTVSS | high polyreactivity
15 | QVQLVESGGGLDQAGGSLRLSCAASGSTFDTYAMGGYRQAPGKERELVAAISVSGTSTSYADSVKGRFTISRDNAKNTVYLQMNILNPEDTAVYYCIATDFSRNPGYARPEYDYWGQGTQVTVSS | low polyreactivity
16 | QVQLVESGGGLVQAGGSLRLSCAASGRTFNVNAMGWYRQAPGIERELVATISSAASTNYADSVKGRFTISRDNAKNTVYLQMNSLKPEDTAVYYCNAAFYKEYYYWGQGTQVTVSS | low polyreactivity
17 | QVQLVESGGGLVQAGGSLRLSCAASGRISDRNAMGWYRQAPGKERELVATIRSGGSTNYADSVKGRFTISPDNAMNTVYLQMNSLKPEDTAVYYCATAKLTWRSQGLDYWGQGTQVTVSS | low polyreactivity
18 | QVQLVESGGGLVQAGGSLRLSCAASGSIFDDNAMGWYRQAPGKERELVAAITSTDSTNYADSVKGRFTISRDNAKNTVYLQMNSLKPEDTAVYYCAKDARALWLHSGIYDYWGQGTQVTVSS | low polyreactivity
19 | QVQLVESGGGLVQAGGSLRLSCAASGSIFQVYAMGWYRQAPGKERELVATITSGGSTYYADSVKGRFTISRDNAKNTVYLQMNSLKPEDTAVYYCAAGVVYWWTGYPTISTYDYWGQGTQVTVSS | low polyreactivity
20 | QVQLVESGGGLVQAGGSLRLSCAASGSIFRQYAMGWYRQAPGTERELVAAINYSGGNTYYADSVKGRFTISRDNAKNTVYLQMNSLKPEDTAVYYCAADSVRHYWWAYYYWGQGTQVTVSS | low polyreactivity
21 | QVQLVESVGGLVHAGGSLRLSCAASGSIFTKNAMGWYRHAPGKERELVAAITGSGGSTYYADSVKGRFTISRDNAKNTVYLQMNSLKPEDTALYYCAANFVFWSGAVYTRYDYWGQGTQVTVSS | high polyreactivity
22 | QVQLVESGGGLVQAGGSLRLSCAASGSIFNSYAMGWYRQAPGKETELVAAITRSDGSTYYADSVKGRFTISRDKAKNTVYLQMNSLKPEDTAVYYCAKGVGGYIYSEYDYWGQGTQVTVSS | low polyreactivity

Row | Sequence | polyreactivity (PSR sort gate)
23 | QVQLVESVGGLVQAGGSLRLSCAASGSIFVTYAMGWYRQAPGKERELVAVITWGGGSTYYADSVKGRFTISRDNAKNTVYLQMNSLIPEDTAVYYCAKDSYYYRRDVNVDYWGQGTQVTVSS | low polyreactivity
24 | QVQLEESGGGLVQAGGSLRLSCAASGRTFKYYSMGWYRPAPGKERELVAAIRSRTGSTYYADSVKGRFTISRDNAKNTVYLQMNSLKPEDTAVYYCAAQPGSYYGPRWYYDDDYWGQGTQVTVSS | high polyreactivity
25 | QVQLVESGGGLVQAGGSLRLSCSASGSIFDVFAMGWYRQAPGKERELVAGISRSGGSTYYADSVKGRFTISRDNAKNTVYLQMNSLKPEDTAVYYCAARYTYYRGRYDYWGQGTQVTVSS | low polyreactivity
26 | QVQLVESGGGLVQAGGSLRLSCAASGFIIRYYTMGWSRQAPGKERELVAVITSGGTTYYADSVKGRFTISRDNAKNTVYLQMNSLKPEDTAVYYCAADYRPRLDGVGVDYWGQGTQVTVSS | low polyreactivity
27 | QVQLVESGGGLVQAGGSLRLSCAASGRTFPYYAMGWYRQAPGKEREFVAGISRTGGSTYYADSVKGRFTISRDNAKNTVYLQMNSLKPEDTAVYYCNAPYILTQQGGRRYDYWGQGTQVTVSS | high polyreactivity
28 | QVQLVESGGGLVQAGGSLRLSSAASGSTFPDYDMGWYRQAPGKERELVAAITSSGGITYYADSVKGRFTISRDNAKNTVYLQMNSLKPEDTSVSYCAAYGYGSNYRYTGYYYWGQGTEVTVSS | low polyreactivity
29 | QVQLVESGGGLVQAGGSIRLICAASGSIFRLYAKGWYRQAPGKEREFVAAISSRGGSTYYADSVKGRFTISRDKAKNTVYLEMNSLKPEDSAVDYCAVYGYHEGGYWGQGTQVTVSS | high polyreactivity
30 | QVQLVESGGGLVQAGGSLRLSCAASGSTFKRYAMGWSRQAPGKERECVAGITWRGGRTYYADSVKGRFKISRDIAKNTVYLQMNSLKPEDTSVYYCAATFYTSSHLAGYYWGQGTQVTVSS | high polyreactivity
31 | QVQLVESGGGLVQAGGSLRLSCAASGIIFTYAMGWYRQAPGKERELVAAIDWRGGRTYYADSVKGRFTISRDNAKNTVYLQMNSLKPEDTAVYYCAVGVLYAGYFYRYRYYYWGQGTQVTVSS | high polyreactivity
32 | QVQLLESGGGLVQEGGSLRLSCAASGSTFHSYAMGWYRQAPGKERELVAGINRTGGSTYYADSVKGRFTISRDNAKNTVYLQMNSLKPEDTAVYYCAAVSYYASVYRYDYWGQGTQVTVSS | low polyreactivity
33 | QVQLVESGGGLVQAGGSLRLSCAASGSIFPINARGWYRQAPGKERELVAAISRRTGSTYYPDSVKGRFTISRDNAKNTVYVQMNSLKPEDTAVYYCAASYGTTRQRWLDYWGQGTQVTVSS | high polyreactivity
34 | QVQLVESGGGLDQAGGSLRLTCAASGSTFQFYAMGWYRQAPGKERYLVAAISGAGGSTYYADSVKGRFTISRDNAKNTVYLQMNILKPEDTAVYYCNKVRRKQSVLTFDYWGQGTQVTVSS | high polyreactivity
35 | QVQLLESGGGIVQAGGSLRLSCAASGRTFYVYGMGWYRQAPGKERELVAAISKRGDNTYYADAVKGRFTISRDNAKNTVYLQMNSLKPEDTAVYYCNVKLYGGRSDYWGQGTQVTVSS | high polyreactivity
36 | QVQLVESGGGLVQAGGSLRLSCAASGRIFGPYTMGWYRQAPGKERELVAAINGRGGSTYYADSVKGRFTISRDNAKNTVYLQMNSLKPEDTAVYYFNASPTWVYSRVYGYNYWGQGTQVTVSS | low polyreactivity
37 | QVQLVESGLGLVQAGGSLRLSCAASGSIFQRYAMGWYRQAPGKEREFVAAISGRGGSTYYADSVKGRFTISRDNAKNTVYLQMNSLKPEDTAVYYCAADSSRFYGRPRFYYWGQGTQVTVSS | high polyreactivity
38 | QVQLVESSGGLVQAGGSLRLSCAASGLTFDGYAMGWYRQAPGKEREIVAAITQSGGSTYYADSVKGRFTISRDNAKNTVYLQMNSLKPVDTAVYYCAADGVLIHISYFRVVDGGEDHWGQGTQVNVSS | low polyreactivity
39 | QVQLVESGGGLVQAGGSLRLSCAASGFTFRSYAMGCYRQAPEKEMELVAAISRRGGSTYYADSVKGRFTISRDNAKNTVYLQMNSLKPEDTAVYFCAKDGTGAGTYDYWGQGTQVTVSS | low polyreactivity
40 | QVQLVESCGGIVQAGGSLRLSCAASGSILRSNSMGTYRQAPGKERELVAAISSRGGSTYYADSVKGRFTISRDNAKNTVYLQMNSLNPEDTAVYYCNKASYTVISYDEYDYWGQVTQVTVSS | high polyreactivity
41 | QVQLVESGGGLVQAGGSLRLSCAASGSIFLYNDMGWYRQAPGKERELVAAITSTGNTNYADSVKGRFTISRDNAKNTVYLQMNSLNRKIPRSITALNVSCTSVVVGYDYWGQGTQVTVSS | low polyreactivity
42 | QVQLVESGGGLVQAGGSLRLSCAASGGIFGYYAMGWYRQAPGKERELVAAITLSGGRTYYADSVKGRFTISRDNAKNTVYLQMNSLKPEDTAVYYCAAKGTRRGKERNYWGQGTQVTVSS | high polyreactivity
43 | QVQLVESGGGLVQAGGSLRFSCAASGSILYYNAKGWYIQAPGKEREFVAAISDSGSSTYYADSVKGRFTISRDTAKNTVYLQMNSLKPEDTADYYCNAYQGDKYDSWGQGSQVTVSS | low polyreactivity
